Experimental data taken from the nanobody polyreactivity screen of Harvey et al. (2022).

Assay: yeast display, Sf9 membrane polyspecificity reagent, FACS + sequencing; frameworks hold sequencing errors
Outline: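 Nanobodies came from a synthetic yeast display library in Saccharomyces cerevisiae BJ5465, induced with galactose for 36–48 hours and stained for 1 hour at 4 °C with 10% biotinylated, detergent-solubilized Sf9 membrane reagent. Cells were enriched on streptavidin microbeads and then FACS-sorted, with low and high (top ~1%) gates set on anti-HA fluorescence for expression and streptavidin fluorescence for reagent binding. Each polyreactivity label reflects the gate a clone came from. Genes were amplified by colony PCR, sequenced by MiSeq 2 × 250 and filtered by CDR length.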

Sequence	polyreactivity (PSR sort gate)
QVQLVESGGGLVQAGGSLRLSCAASGYTLGDYAMGWYRQAPGKERELVAAISSGGITSYADSVKGRFTISRDNAKNTVYLQMNSLKPEDTAVYYCNAAIVGFTRAYQYDYWGQGTQVTVSS	high polyreactivity
QVQLVESGGGLVQAGGSLRLSCAASGYTLGDYSMGWYRQAPGKERELVAVITRNGGRTYYSDSVKGRFTISRDKAKNTVYLQMNSLKPEDTAVYYCNRDTSIRHYNYWGQGTQVTVSS	high polyreactivity
QVQLVESGGGLVQAGGSLRLSCAASGYTLGYYAMGWYRQAPGKERELVASITERGGSTYYADSVKGRFTISRDNAKNTVYLQMNSLKPEDTAVYYCAADWDPSWWLFPTSSYDYWGQGTQVTVSS	low polyreactivity
QVQLVESGGGLVQAGGSLRLSCAASGYTLRIYAMGWYRQAPGKEREMVAAISRSGGRTFYADSVKGRFTISRDNAKNTVYLQMNSLKPEDTAVYYCAADPRSYDTGRMDYWGQGTQVTVSS	high polyreactivity
QVQLVESGGGLVQAGGSLRLSCAASGYTLYQYAMGWYRPAPVKERELVAAISRRGGSTYYADSVKGRFTISRDNAKNTVYLLMNSLKPEDTAVYYCNNANLYRFWEMDYWGQGTQVSVSS	high polyreactivity
QVQLVESGGGLVQAGGSLRLSCAASRFIFRRNAMGWYRQAPGKERELVAAITLSGGSTYYADSVKGRFTISRDNAKNTVYLQMKSLKPEDTAFYFCAARPGYYTRYDYWGQGTQVTVSS	low polyreactivity
QVQLVESGGGLVQAGGSLRLSCAASRFIFSVYTMGSYIQAPGKERELVAAISSGPSTTYADSVKGRFTISRDNAKNTVYLQMNSLKPEDTAVYYCARRDGTTQALFGYDYWGLGTQVTVSS	low polyreactivity
QVQLVESGGGLVQAGGSLRLSCAASRFTIIPYDMGRYRQAPGKERELVATISRGGSTNYADSVKGRFTISRENAKNTVYLQMNSLKPEDTAVYYCAAEYKVVFSQPYCEYDYWGQGTQVTVSS	low polyreactivity
QVQLVESGGGLVQAGGSLRLSCAASRLTFSYYAMGWYRQAPGKERELVAAISERGGSTYYADSVKGRFTISRDNAKNTVYLQMNSLKPEDTAVYYCAADFVYGTRDDSWGQGTQVTVSS	high polyreactivity
QVQLVESGGGLVQAGGSLRLSCAASRNIFDTYVMGWYRQAPGKETELVAANTSDGGTYYADSVKGRFTISRDNAKNTVFFQMNSLKPVDTAVYSCAADTYYYPIHDYWGQGTQVTVSS	low polyreactivity
QVQLVESGGGLVQAGGSLRLSCAASRRIFSQYAMGWSRQAPGKERELVAAITWRGASTYYADSVKGRFTISRDNAKNTVYLQMNSLKPEDTAVYYCAAGYPPGRYYRVRWVGYWGQGTQVTVSS	high polyreactivity
QVQLVESGGGLVQAGGSLRLSCAASRRTFKPYAMGWYRQAPGKERELVARISGSGGSTYYADSVKGRFTISRDNAKNTVYLQMNSLKPEDTAVYYCATTPYYWFDYWGQGTQVTVSS	low polyreactivity
QVQLVESGGGLVQAGGSLRLSCAASRRTYWYNAMGWYRQSPGKERELVAAISRAGRTYYADSVKGRFTISRDNAKNTVYIQMNSLKPEDTAVYYCNVVLFGDSGNLQYYYWGQGTQVTVSS	high polyreactivity
QVQLVESGGGLVQAGGSLRLSCAASRSIFSWYAMGWYRTAPGTERELVAAITWTGGSTYYADSVKGRFTISRDNAKNTVYLQMKSLKTEDTAVYYCAARRVVYRKYGDRGRWYNYWGQGTQVTVSS	high polyreactivity
QVQLVESGGGLVQAGGSLRLSCAASRSIFSYNAMGWYRQAPGKGREFVAAITSSGTRKYYADSVQGRFTISRDNAMNTVYLQLNSLKPEDTAVYYCAADLRYDYWGQGTQVPVSS	high polyreactivity
QVQLVESGGGLVQAGGSLRLSCAASRSIFYINAMGWYRQEPGKEMELVAAITSDGSTYYADSVKGRFTISRDNAKNTVYLQMNSLKPEDTAVYYCAADLTSDQYLYYWYWFYSWGQGTQVTVSS	low polyreactivity
QVQLVESGGGLVQAGGSLRLSCAASRSNFQFYAMGWYRQAPGTERELVAVISTRGGSTYYADSVKGRFTISRDKAKNTVYLQMYSLKPEDTAVYYCAAKSVYRMGYWGQGTQVTVSS	high polyreactivity
QVQLVESGGGLVQAGGSLRLSCAASRSTFPFYAMGWYRQAPGKERELVAAITSGGSTYADSVKGRFTISRDNAKNTVYLQMNSLKPEDTAVYYCAASWPRWWRFGYWGQGTQVTVSS	low polyreactivity
QVQLVESGGGLVQAGGSLRLSCAASRSTFTGNAMGWYRQAPGNERELVASINGSSGSTYYADSVKGRFTISRDNAKNTVYLQMNSLKPEDTAVYYCAKDSFLHFPRVGWVGLEYWGQGTQVTVSS	low polyreactivity
QVQLVESGGGLVQAGGSLRLSCAASVFIFDRYAMGWYRQAPGKERELVAAISSGGSTYYADSVKGRFTISRDNAKNTVYLQMNSLKPEDTAVYYCAAESWLNFIYEYDYWGQGTQVTVSS	low polyreactivity
QVQLVESGGGLVQAGGSLRLSCAASVFTFQYYAMGWYRQAPGKERELVAAISRRGGRTDYADSVKGRFTISRDNAKNTVYLQMNSLKPEDTAVYYCARDPGAFEYWGQGTQVTLSS	high polyreactivity
QVQLVESGGGLVQAGGSLRLSCAASVIIFNLYAMGWYRQAPGKERELVAAISWSGGSTYYADSVKGRFTISRDNAKNTVYLQMNSLKPEDPAVYYCATSFLYPYFDEDDYWGQGTQVTVSS	high polyreactivity
QVQLVESGGGLVQAGGSLRLSCAASVITFWIYAMGWYRQAPGKERELVAAITGRGGSTYYADSVKGRFTISRDNAKNTVYLQLNSLKPEDTAFYYCAAESWYSTYDYWGQGTQVTVTS	high polyreactivity
QVQLVESGGGLVQAGGSLRLSCAASVLIFDGYAMGWYRQAPGKEREFVADIDFGGGSTYYADSVKGRFTISRDNAKNTVYLQMNSLKPEDTAVYYCNAVWDDYGFYSPYVVVEYDYWGQGTQVTVSS	high polyreactivity
QVQLVESGGGLVQAGGSLRLSCAASVLIFHTYGMGWYRQAPGKERELVADITDGGSTYYADSVKGRFTISRDNAKNTVYLQMNSLKPEDTAVYYCAADERGVFLTYWYFWYDYWGQGTQETVSS	low polyreactivity
QVQLVESGGGLVQAGGSLRLSCAASVLIIWLYTMGWYRQAPGKERELVAAIDWSGGSTYYADSVKGRFTMSRDIAKNTVYLQMNRLKPEDTAVYYCAADPEPSYRFDYGGQGTQVTVSS	low polyreactivity
QVQLVESGGGLVQAGGSLRLSCAASVRIFATNAMGWSRQAPGKERELVARISRRGGSTNYADSVKGRFTISRDNAKNTVYLQMNSLKPEDTAVYYCNVSFYWYRWYALLDYWGQVTQVTVSS	high polyreactivity
QVQLVESGGGLVQAGGSLRLSCAASVRIFFRYAMGWYRQAPGKERELVAAIRKSGGSTYYADSVKGRFTISRDNAKNTVYFQMNSLKPEDTAVYYCAADVYYYYGRKYNYWGQGTQVTVSS	low polyreactivity
QVQLVESGGGLVQAGGSLRLSCAASVRIFGSNVMGWYRQAPGKERELVASISSGGTTYYADSVKGLFTISRDNAKNTVYLQMNSLKPEDTAGYYCAKQWTRIYQYRWYPGTRTGYDYWGHGTQVTVSS	high polyreactivity
QVQLVESGGGLVQAGGSLRLSCAASVRIFGSNVMGWYRQAPGKERELVASISSGGTTYYADSVKGRFTISRDNAKNTVYLHMNSLKPEDTAVYYCAKQWTRIYQYRWYPGTRTGYDYWGQGTQVTVSS	high polyreactivity
